From patent publication US20240026407A1, “MODIFICATION OF SAPONINS” (GLAXOSMITHKLINE BIOLOGICALS SA, priority 2020, published 2024)

Legend:
Assay type in all cases: biochemical, Quillaja saponaria
[1] = Experiment 5-3: screening of additional glucosidases for deglycosylation with QS-18 in treated bark extract (80%) at pH 6 and 35 deg C; settings: TBE 80% (QS-21 approx. 4 g/L), pH 6, 35 deg C; UV HPLC
Method: Experiment 5-1 was repeated, replacing CBE with Treated Bark Extract (TBE) at pH 6. TBE was prepared from CBE by PVPP treatment and concentration, to provide TBE with a QS-21 concentration of approximately 4 g/L. TBE was adjusted to pH 6 by dropwise addition of 2M NaOH with stirring.

[2] = Experiment 5-1: screening of additional glucosidases for deglycosylation with purified QS-18 (0.04 mg/ml) at pH 7.5 and 30 deg C; settings: pH 7.5, 30 degrees C, 18 hours, LCMS/MS
Method: The 94 additional genes, together with positive control (DNA encoding SEQ ID No. 262) and negative control, were transformed, expressed, lysed and reacted in the same manner as described above for Experiment 4-1, except the reaction was incubated at 30 degrees C. for 18 hours.
Samples were analysed by LCMS/MS according to the procedure in Experiment 4-1.

[3] = Experiment 5-2: screening of additional glucosidases for deglycosylation with QS-18 in crude bark extract (80%) at pH 6 and 35 deg C; settings: CBE 80%, pH 6, 35 deg C, 18 hours; UV HPLC
Method: A plate was lysed at pH 6 as described in Experiment 4-2. 40 uL of clarified lysate was transferred to a reaction plate
The pH of CBE was adjusted to pH 6 by dropwise addition of 2M NaOH with stirring. 160 uL of pH 6 CBE was added to each well of the reaction plate. The reaction plate was sealed and incubated at 35 deg C. with shaking for 18 hours.
The reaction plate was quenched by adding 200 uL of MeCN (2% acetic acid (AcOH), 1 mg/mL hexanophenone) to each well of the plates. The quenched reaction plate was re-sealed and incubated at 20 deg C. with shaking for 10 min. The reaction plate was then centrifuged (10 min, 4 degC).
200 uL was transferred from each well of the quenched plate to the corresponding wells of a fresh 96 well plate and sealed. The plate was analysed by UV HPLC with the method of Experiment 4-4.

B1: 886 (protein, listed as Brachyspira suanatina)
chain: MNDNKYSQKIKELMKEMTLEEKVSLLSGKDFWSTKAIDRLKIDSVYLTDGPHGVRKQSTESDELSLQKSVSSTCFPTACCSACSFDPNIMYEMGEAISREAKANKVSVVLGPGVNIKRSPLCGRNFEYFSEDPYLAGKMASGWINGLEDNGIQSSLKHFAANNQETLRLIIDSVVDERALREIYLYAFEIAVKEAKPSTVMCAYNSVNGTFASENKYLLTDILRDEWGFDGIVVSDWGAVNDRVEALKAGLDLQMPSTNGEDDRKVYNAVKETIIDEKILDKAVERLLYFSLYSMDNIYDNFDYDKEEHHNIARKIAENSIVLLKNQDKILPAKKESKIAVIGEFAQKPRYQGNGSSLINAYKIDTAEEYFKENNIEFDYAKGYDSNSADIDNALIEEAVNISKDKDIVIIFAGLINSYESEGFDRKHLNLPENHNHLIEEISKVNKNVVVVLSIGAPVLMPWIDKVKGVLNLYLAGEAAVSAAFNIIFGVVNPSGKLAESFPLSLEDNPSYKYFPGGNKAVEYRESIFVGYRYYDKAQKNVLFPFGFGLSYTTFQFSNLIVSDANTIAGLDNIHVVFDIKNTGDVFGCEVAQVYISAPENNVFKPHKELKSFIKVFLEPGETKTVILKLNKRSFSFYNADTKQYEIESGVYTIYIGNSSRNLLLSKTMEINSINYYQKRIDNYFNFKEINISDNEFQQLLGRKLKPINIKASKPYHLNNNLSDLLDNNIAKEFYNKLLSGLNDMFKDDKTDTKKMFESMMLETPLRSLHTMSGGIITREDVENLINTLNK
- Experiment 5-3 % conv [1]: <0.5%
- Experiment 5-1 % conv [2]: 55.5%
- Experiment 5-2 % conv [3]: <0.5%

B2: 814 (protein, listed as Bifidobacterium reuteri)
chain: MSETNATPTYPSVKDLTLEEKASLTSGGDAWHLQSVEHKGIPGYMITDGPHGLRKSLASNTSETDLNDSVPATCFPPAAGLSSSWNPALIRKVGEVMGEECVQEKVAVILGPGVNIKRNPLGGRCFEYWSEDPYLAGHEAVGIVEGVQSKGVGTSLKHFAANNQETDRLRVDARISQRALREIYLPAFEHIVKTAQPWTIMCSYNRINGVHSAQNHWLLTDVLRDEWGFKGIVMSDWGADHDRVASLNAGLNLEMPPSYTDDQIVYAARDGRIDPAQLDRMAQGMIDLTNKARAAMSIDGYRFDVDAHDEVARQAAVESIVMLKNEDAILPIDPAGGKKLAVIGEFARTPRYQGGGSSHITPTKMTSFLDALDERGIKADFAPGFTLDLAPADSALTLEAVETARDADVVLMFLGLPEEAESEGFDRTTLDIPAKQIELLRQVAAENPNVVVVLSNGSVVTVHPWADASKSILESWLLGQAGGRALADVVFGEASPSGKLAQSIPMDINDDPSMLNWPGEEGHVDYGEGVFVGYRYYDTYNKAVDYPFGYGLSYATFEIGDVAVAKTGANTASVTATVTNTSDTPAAETVQVYVAPGKADVARPVHELKGFEKVFLGAGESKTVTIELNERAFAYWSEKYNDWHVEAGEYTVEVGVSSRDIAASIAVTLDGDGKSMPLNEWSTFGEWSADPVGAKVVEAVGAAGERGDMPKLPDNDMMRLFLNSMPINSLPTLLGESGKDLTAFMLDEYAALTK
- Experiment 5-3 % conv [1]: <0.5%
- Experiment 5-1 % conv [2]: 58.4%
- Experiment 5-2 % conv [3]: <0.5%
